Tests used:
[1] = target: human HER2 (ErbB2), human epidermal growth factor receptor 2 protein (human) (UniProt P04626); test: flow cytometry on SKOV-3 cells, background without primary antibody
[2] = target: human HER2 (ErbB2), human epidermal growth factor receptor 2 protein (human) (UniProt P04626); test: flow cytometry on JIMT-1 cells, background without primary antibody
[3] = target: Jurkat cells (human T leukemia cells; do not express human HER2); test: flow cytometry on HER2-negative Jurkat cells, background without primary antibody

MFI [1]: 8 | MFI [2]: 3.29 | MFI [3]: 9
Substance: goat F(ab')2-anti-human IgG (H+L)-RPE (Southern Biotech, Cat. No. 2043-09)

— patent publication US20160051695A1
